The target of data set [1] is T1, Complement component 3 (C3) (Homo sapiens) (UniProt P01024+P01024). Kind of data set: filter. To be noted: 3'-3' idT.
Data set [2] has as its target T1, Complement component 3 (C3) (Homo sapiens). Kind of data set: inhibition. To be noted: P = NapdU (all U), 3'-3' idT, hemolysis, 20 nM C3, GVB++, 37 C.
Where [3] appears, read: all U in listing = NapdU, SB18T0.01, 37C.

T1 sequence (P01024 23-667, chain 1 of 2): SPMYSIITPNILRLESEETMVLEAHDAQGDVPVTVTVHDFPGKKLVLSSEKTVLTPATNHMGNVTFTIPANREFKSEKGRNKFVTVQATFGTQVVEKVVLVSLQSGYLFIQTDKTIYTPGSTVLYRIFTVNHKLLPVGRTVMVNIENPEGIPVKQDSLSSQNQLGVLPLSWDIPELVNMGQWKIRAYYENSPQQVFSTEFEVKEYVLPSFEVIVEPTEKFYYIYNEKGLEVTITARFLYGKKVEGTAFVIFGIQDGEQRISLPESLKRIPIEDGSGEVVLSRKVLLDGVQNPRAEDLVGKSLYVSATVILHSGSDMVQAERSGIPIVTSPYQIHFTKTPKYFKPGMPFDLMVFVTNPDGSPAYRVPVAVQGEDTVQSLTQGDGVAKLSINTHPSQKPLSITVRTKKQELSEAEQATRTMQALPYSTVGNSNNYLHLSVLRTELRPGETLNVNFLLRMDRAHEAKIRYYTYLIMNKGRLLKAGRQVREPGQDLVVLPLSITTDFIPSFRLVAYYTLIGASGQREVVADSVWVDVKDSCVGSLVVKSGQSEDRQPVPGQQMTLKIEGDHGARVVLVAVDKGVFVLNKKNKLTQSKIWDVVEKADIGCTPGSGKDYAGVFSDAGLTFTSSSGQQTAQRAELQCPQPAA
T1 sequence (P01024 672-1663, chain 2 of 2): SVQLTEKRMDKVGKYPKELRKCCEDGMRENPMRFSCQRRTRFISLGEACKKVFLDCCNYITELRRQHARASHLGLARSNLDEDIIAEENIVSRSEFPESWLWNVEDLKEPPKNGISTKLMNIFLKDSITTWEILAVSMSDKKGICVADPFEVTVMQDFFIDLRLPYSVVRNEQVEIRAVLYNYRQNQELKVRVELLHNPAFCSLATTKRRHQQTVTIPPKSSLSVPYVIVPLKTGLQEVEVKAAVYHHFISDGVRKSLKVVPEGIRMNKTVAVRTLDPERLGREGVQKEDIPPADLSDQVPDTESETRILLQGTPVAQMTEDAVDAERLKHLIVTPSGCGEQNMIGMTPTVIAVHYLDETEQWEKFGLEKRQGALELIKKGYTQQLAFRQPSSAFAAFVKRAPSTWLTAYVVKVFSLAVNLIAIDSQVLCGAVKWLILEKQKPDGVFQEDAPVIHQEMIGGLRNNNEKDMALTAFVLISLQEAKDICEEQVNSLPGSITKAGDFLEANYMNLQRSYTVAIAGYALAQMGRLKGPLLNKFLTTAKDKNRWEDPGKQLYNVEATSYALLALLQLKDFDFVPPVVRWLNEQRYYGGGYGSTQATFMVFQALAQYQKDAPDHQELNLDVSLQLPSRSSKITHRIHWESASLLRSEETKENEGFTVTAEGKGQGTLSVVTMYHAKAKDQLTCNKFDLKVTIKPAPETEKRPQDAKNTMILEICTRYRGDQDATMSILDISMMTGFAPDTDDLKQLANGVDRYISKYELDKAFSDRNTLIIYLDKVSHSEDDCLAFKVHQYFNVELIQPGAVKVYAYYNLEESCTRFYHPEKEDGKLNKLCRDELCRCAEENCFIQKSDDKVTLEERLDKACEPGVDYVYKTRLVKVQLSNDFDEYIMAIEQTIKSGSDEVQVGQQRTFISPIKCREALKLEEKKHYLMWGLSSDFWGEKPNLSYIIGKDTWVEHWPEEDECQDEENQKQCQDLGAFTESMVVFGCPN

For orientation: Kd means a measure of binding affinity in units of concentration. Higher therefore signals weaker binding. By IC50 is commonly meant the concentration needed to halve the response being measured. Read a high IC50 as lower potency. Regarding “CCGGUGACUCAAUAGUCCGUACGUUCCCGG [8491-94_26]”, the Kd in data set [1] (all U = NapdU, SB18T0.01, 37C) turned out to be 0.0511 nM. Besides, the IC50 in data set [2] amounted to 15.1 nM.

The sequence “CGGUGACUCAAUAGUCCGUACGUUCCCG [8491-94_53]” displayed a Kd in data set [1] (all U = NapdU, SB18T0.01, 37C) of 0.0334 nM. Further, in data set [2], the IC50 was 17.1 nM.

In data set [1] (all U = NapdU, SB18T0.01, 37C), “CCGGUGACUCAAUAGUCCGUACGUUCCCG [8491-94_27]” had a Kd of 0.0658 nM. In data set [2], the IC50 turned out to be 24.6 nM. Turning to “CGGUGACUCAAUAGUCCGUACGUUCCCG [8491-94_74]”, the Kd in data set [1] (P = NapdU (all U), 2'-OMe C16, SB18T0.01, 5 mM MgCl2, 37 C) came to 0.192 nM. This counts as sub-nanomolar. In data set [1] (all U = NapdU, C3-spacer replaces C8, SB18T0.01, 37C), “CCGGUGAUCAAUAGUCCGUACGUUCCCGG [8491-94_36]” showed a dissociation constant (Kd) of 0.0315 nM. Turning to “GGGUGACUCAAUAGUCGUACAUUCCCC [8491-94_136]”, the Kd in data set [1] (all P = NapdU, 2'-OMe at 1,2,3,5,7,9,10,13,19,20,22-28, C3-spacer replaces C17, SB18T0.01, 37C) amounted to 9.1 nM. Sequence “ACTCCGAGCAUUGACUCAAUAGUCCGUACGUUUUUGACCGGGGCAGGGGGAGGA [8491-385_3]” yielded a Kd in data set [1] (all U in listing = NapdU, printed as 1.46-10, SB18T0.01, 37C) of 0.146 nM. CGGUGACUUAGUCCGUACGUUCCCG [8491-94_57] displayed a Kd in data set [1] (all U = NapdU, hexaethylene glycol (Heg) replaces C9-A10-A11, SB18T0.01, 37C) of 0.245 nM. Regarding “CGGUGACUCAAUAGUCGUATGUUCCCG [8491-94_133]”, the Kd in data set [1] (all P = NapdU, T = dT, 2'-OMe at 1,2,3,5,7,9,10,13,19,20 and all residues after T21, C3-spacer replaces C17, SB18T0.01, 37C) came to 5.06 nM.

As for “TGGUGACUCAAUAGUCCGUACGUUCCCA [8491-94_128]”, the Kd in data set [1] (all P = NapdU, T1 = dT, 2'-OMe at 2,3,5,7,9,10,13,19,20,22-28, SB18T0.01, 37C) was 0.038 nM.

Regarding “ACTCCGAGCUUUUUUGACUCAAUUAGUCCGUACGUUUUUUGGCCGGGCAGGGGAGGA [8491-404_3]”, the Kd in data set [1] (setting [3]) was found to be 0.185 nM. That is a sub-nanomolar value.

In turn, “CGGUGACUCAAUAGUCCGUACGUUCCCG [8491-94_82]” registered a Kd in data set [1] (all U = NapdU, 2'-OMe at NapdU24, SB18T0.01, 37C) of 0.0118 nM. As to “CGGUGACUCAAUAGUCCGUACGUUCCCG [8491-94_90]”, the Kd in data set [1] (all U = NapdU, 2'-OMe at 1,2,3,5,7,10,13,26,27,28, SB18T0.01, 37C) turned out to be 0.00424 nM. The same sequence registered a concentration for half-maximal inhibition (IC50) in data set [2] (2'-OMe at 1,2,3,5,7,10,13,26,27,28) of 18.9 nM.

On to “CGGUGACUCAAUAGUCCGUACGUUCCCG [8491-94_67]”, for which the equilibrium dissociation constant (Kd) in data set [1] (P = NapdU (all U), 2'-OMe C9, SB18T0.01, 5 mM MgCl2, 37 C) stood at 0.0699 nM.

In the case of “CGGUGACUCAAUAGUCCGUACGUUCCCG [8491-94_93]”, in data set [1] (all U = NapdU, 2'-OMe at 1,2,3,5,7,10,13,19,23,24,26,27,28, SB18T0.01, 37C), the Kd amounted to 0.0152 nM. As to “ACTCCCCGGUGACUCAAUAGUCCGUACGUUCCCGGUCC [8491-94_7]”, the Kd in data set [1] (all U = NapdU, SB18T0.01, 37C) was 0.0194 nM.

As for “CGGUGACUCAAUAGUCCGUACGUUCCCGGUCCGAACGCGGAGGA [8491-94_9]”, the Kd in data set [1] (all U = NapdU, SB18T0.01, 37C) was determined as 0.243 nM. This Kd is about 13-fold higher than that of the sequence before.

For “CGGUGACUCAAUAGUCCGUACGUUCCCG [8491-94_81]”, the Kd in data set [1] (P = NapdU (all U), 2'-OMe P23, SB18T0.01, 5 mM MgCl2, 37 C) was 0.0243 nM.

“CCGGUACUCAAUAGUCCGUACGUUCCCGG [8491-94_34]” registered a dissociation constant Kd in data set [1] (all U = NapdU, C3-spacer replaces G6, SB18T0.01, 37C) of 14.1 nM. This counts as double-digit nanomolar. Regarding “UGACUCAAUAGUCCGUACGUUCCCGGUCCGAACGCGGAGGA [8491-94_10]”, the Kd in data set [1] (all U = NapdU, SB18T0.01, 37C) was 7.6 nM. For the sequence “CGGUGACUCAAUAGUCCGUACGUUCCCGG [8491-94_30]”, in data set [1] (all U = NapdU, C3-spacer replaces C1, SB18T0.01, 37C), the Kd came to 0.0622 nM. The sequence “CGGUGACUCAAUAGUCCGUACGUUCCCG [8491-94_97]” displayed a Kd in data set [1] (all U = NapdU, 2'-OMe at 1,2,3,5,7,9,10,13,19,20,22-28, SB18T0.01, 37C) of 0.0549 nM. For the same sequence, the IC50 in data set [2] (2'-OMe at 1,2,3,5,7,9,10,13,19,20,22,23,24,25,26,27,28, C3a release in 34% serum IC50 3 uM) turned out to be 15.6 nM. Take “CGGUGACUCAAUAGUCCGUACGUUCCCG [8491-94_96]”: the Kd in data set [1] (all U = NapdU, 2'-OMe at 1,2,3,5,7,9,10,13,19,20,23-28, SB18T0.01, 37C) worked out at 0.0364 nM. In other words, the picomolar range. Regarding CGGUGAUCAAUAGUCGUACGUUCCG [8491-94_100], in data set [1] (all U = NapdU, 2'-OMe at 1,2,3,5,9,10,13,19,20,22,23,24,26,27,28, C3-spacer replaces C7, C17, C25, SB18T0.01, 37C), the Kd worked out at 0.0794 nM. In data set [1] (all U = NapdU, C3-spacer replaces C17, SB18T0.01, 37C), “CCGGUGACUCAAUAGUCGUACGUUCCCGG [8491-94_42]” came in with a Kd of 0.86 nM. In data set [1] (setting [3]), “ACTCCAUGUCGGCGUUUGGCUCAAUAGUCCGUACGUUUUACGCGUGAGGA [8491-389_3]” had a Kd of 0.0295 nM. Regarding “CGGUGACUCAAUAGUCCGUACGUUCCCG [8491-94_62]”, the Kd in data set [1] (P = NapdU (all U), 2'-OMe P4, SB18T0.01, 5 mM MgCl2, 37 C) is 0.0918 nM. In turn, “CGGUGACUCAAUAGUCCGUACGUUCCCG [8491-94_85]” came in with a Kd in data set [1] (P = NapdU (all U), 2'-OMe C27, SB18T0.01, 5 mM MgCl2, 37 C) of 0.0524 nM. On to “CGGUGACUCAAUAGUCCGUACGUUCCCG [8491-94_64]”, for which the Kd in data set [1] (all U = NapdU, 2'-OMe at A6, SB18T0.01, 37C) worked out at 0.512 nM. Turning to “CCGGUGACUCAAUAGUCCGUACGUUCCGG [8491-94_49]”, the Kd in data set [1] (all U = NapdU, C3-spacer replaces C27, SB18T0.01, 37C) worked out at 0.266 nM. Regarding “CGGUGACUCAAUAGUCCGUACGUUCCCG [8491-94_60]”, the Kd in data set [1] (P = NapdU (all U), 2'-OMe G2, SB18T0.01, 5 mM MgCl2, 37 C) worked out at 0.0537 nM. This counts as picomolar. With “CCCCGGUGACUCAAUAGUCCGUACGUUCCCGG [8491-94_25]”, the Kd in data set [1] (all U = NapdU, SB18T0.01, 37C) is 0.0928 nM. “CGGUGACUCAAUAGUCCGUACGUUCCCG [8491-94_80]”: the Kd in data set [1] (P = NapdU (all U), 2'-OMe G22, SB18T0.01, 5 mM MgCl2, 37 C) is 0.0678 nM.

For the origin of these results see US20170166895.
